This is an account of results in patent publication US20110112172.

Data set [1] deals with human SDF-1 alpha (CXCL12) (Homo sapiens) (UniProt P48061). The data set is described as follows: SPR. The conditions noted are these: L-RNA, 37 C.
In data set [2] the target is biotinylated human D-SDF-1 (mirror-image CXCL12) (Homo sapiens) (UniProt P48061). Briefly: pulldown. The conditions noted are these: 37 C.
Chain of biotinylated human D-SDF-1 (mirror-image CXCL12) (Homo sapiens) (P48061 22-92): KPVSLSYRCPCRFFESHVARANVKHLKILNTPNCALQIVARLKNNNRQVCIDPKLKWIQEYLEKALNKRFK

Chain of human SDF-1 alpha (CXCL12) (Homo sapiens) (P48061 22-89): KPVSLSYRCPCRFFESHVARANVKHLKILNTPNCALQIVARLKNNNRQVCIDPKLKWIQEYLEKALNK

As usually defined, the Kd is the concentration at which binding is half-saturated. A low value points to higher affinity. As to “GUGCUGCGGGGGUUAGGGCUAGAAGUCGGCCUGCAGCAC [197-B2 Spiegelmer]”, the dissociation constant (Kd) in data set [1] stood at 0.9 nM.

In turn, “CGGGAGGUUAGGGCUAGAAGUCGGUCCCG [191-D5-007 aptamer (D)]” came in with a Kd in data set [2] (somewhat better than 191-D5-001 in competition) of 2.2 nM.

For the sequence “AGCGUGGUGUGAUCUAGAUGUAUUGGCUGAUCCUAGUCAGGUACGCU [193-G2-001 Spiegelmer]”, the Kd in data set [1] stood at 0.5 nM. This lies in the sub-nanomolar range.

On to “GCUGUGAAAGCAACAUGUCAAUGAAAGGUAGCCGCAGC [192-A10-001 Spiegelmer]”, for which the equilibrium dissociation constant (Kd) in data set [1] (1 mM Mg, 1 mM Ca) came out at 1 nM.

Sequence “GCUGUGAAAGCAACAUGUCAAUGAAAGGUAGCCGCAGC [192-A10-001 aptamer (D)]” returned a Kd in data set [2] (1 mM Mg, 1 mM Ca, pH 7.4) of 1.5 nM.

On to “GAGAUAGGGGUUAGGGCUUAAAGUCGGCUGAUUCUC [190-A3-004 Spiegelmer]”, for which the dissociation constant Kd in data set [1] was found to be 4.7 nM.

In turn, “GAGAUAGGGGUUAGGGCUUAAAGUCGGCUGAUUCUC [190-A3-004 aptamer (D)]” yielded a Kd in data set [2] (same affinity as 190-A3-001) of 4.6 nM.

In turn, “AGCGUGGUGUGAUCUAGAUGUAUUGGCUGAUCCUAGUCAGGUACGCU [193-G2-001 aptamer (D)]” yielded a Kd in data set [2] (better than 192-A10-001 in competition) of 0.3 nM.

With “AGCGUGGCGAGGUUAGGGCUAGAAGUCGGUCGACACGCU [191-D5-001 Spiegelmer]”, in data set [1] (FIG. 21 cited here is labelled 191-D5-007), the Kd stood at 0.8 nM. This lies in the sub-nanomolar range.

The sequence “CGGGAGGUUAGGGCUAGAAGUCGGUCCCG [191-D5-007 Spiegelmer]” showed a Kd in data set [1] of 0.8 nM. In other words, the sub-nanomolar range.

On to “GCGUGGUGUGAUCUAGAUGUAUUGGCUGAUCCUAGUCAGGUACGC [193-G2-012 aptamer (D)]”, for which the Kd in data set [2] was 0.3 nM.
